The text below walks through data of patent publication US20240327495A1 (OXFORD UNIVERSITY INNOVATION, published 2024).

Where a chain is given by its changes, count along the chain named. Numbers in names are those of the source.

In test [1] the target is T1, combined repetitive oligopeptide domain of C. difficile toxin A (residues 2304-2710, CROP) (Clostridium difficile, UniProt P16154 2304-2710).
T1 construct: range 2304-2710; also called AviTag-His6-CROP; TcdA CROP
The test can be described thus: SPR, equilibrium analysis, biotinylated AviTag-His6-CROP captured on the chip.

The target of test [2] is T2, C. difficile toxin B glucosyltransferase domain (GTD, residues 2-543) (Clostridium difficile, UniProt P18177 2-543).
T2 construct: range 2-543; also called AviTag-His6-GTD; TcdB GTD
The test can be described thus: ELISA on antigen-coated wells, anti-SBTI antibody detection.

The next test concerns the target hen egg lysozyme (HEL) (hen, UniProt P00698 19-147). The test can be described thus: ELISA, antigen-coated wells, 500 nM gastrobody, detected with polyclonal anti-SBTI antibody.
For test [3], the target named is T2, C. difficile toxin B ….
Test [4] concerns the target T2, C. difficile toxin B …. Kind of test: SPR, kinetic analysis, biotinylated AviTag-His6-GTD captured on the chip.
Test [5] concerns the target T1, combined repetitive oligopeptide domain …. Kind of test: ELISA on antigen-coated wells, anti-SBTI antibody detection.
The target in a further test is T3, trypsin (cow, UniProt P00760 24-246).
T3 construct: also called trypsin from cow pancreas (T1426, Merck)
The test can be described thus: plate assay, trypsin-coated wells, bound gastrobody detected with biotinylated GTD and streptavidin-HRP.

Test [6] addresses T2, C. difficile toxin B …. The test can be described thus: SPR, GTD.
Test [7] concerns the target T2, C. difficile toxin B …. Kind of test: SPR, immobilised GTD.
Test [8] deals with T2, C. difficile toxin B …. Kind of test: SPR, immobilised GTD. This is another data set of the same source.

B1: anti-CROP gastrobody G9 (designed binder, not shown: small tags and cut ends)
chain: DFVLDNEGNPLENGGTYYILSHPDLFGGIRAAPTGNERCPLTVVQSLYLFDKGIGTIISSPYRIRFIAEGHPLSLKFDSFAVIMLCVGIPTEWSVVEDLPEGPAVKIGENKDAMDGWFRLERVSDDEFNNYKLVFCPQQAEDDKCGDIGISIDHDDGTRRLVVSKNKPLVVQFQKLDKESL
As for B1, the dissociation constant Kd in test [1] is 4.6 µM.

B2: anti-CROP gastrobody T42 (designed binder, not shown: small tags and cut ends)
chain: B1 chain with H22V, D24H, L25Q, L47R, Y48N, L49K, F50W
On to B2, for which, in [1], the Kd is 7.3 µM.

B3: anti-CROP gastrobody T12 (designed binder, not shown: small tags and cut ends)
chain: B1 chain with H22I, P23A, D24G, L25T, Y48V, L49F, F50P
notes: also called anti-CROP clone T12; anti-CROP (T12)
Regarding B3, the values for the binding result (in test [2]; with hen egg lysozyme (HEL)) were “no binding (tested: 500 nM gastrobody)” and “no binding (tested: 500 nM)”, respectively. In addition, the Kd in test [1] was found to be 1.7 µM.

B4: anti-CROP gastrobody G22 (designed binder, not shown: small tags and cut ends)
chain: B1 chain with H22L, P23Q, D24N, L25R, L47H, Y48D, L49F, F50M
On to B4, for which the Kd in test [1] is roughly 50 µM.

B5: anti-GTD gastrobody GT01 (designed binder, not shown: small tags and cut ends)
chain: DFVLDNEGNPLENGGTYYILSDYGRQLFGGIRAAPTGNERCPLTVVQSLFRNHRDKGIGTIISSPYRIRFIAEGHPLSLKFDSFAVIMLCVGIPTEWSVVEDLPEGPAVKIGENKDAMDGWFRLERVSDDEFNNYKLVFCPQQAEDDKCGDIGISIDHDDGTRRLVVSKNKPLVVQFQKLDKESL
notes: also called anti-GTD (GT01); His6-Thrombin site-SpyTag003-GT01
For the molecule B5, in test [3], the “EC50 (read off the curve)” value is roughly 7 nM. In [4], this molecule returned a Kd of 85 nM, a dissociation rate constant (koff) of 0.036 s⁻¹ and a kon of 420000 M⁻¹ s⁻¹. Moreover, the binding result in [5] is “no binding (tested: 500 nM gastrobody)”. For the same molecule, the binding result with hen egg lysozyme (HEL) was “no binding (tested: 500 nM)”. Also, in the test with trypsin, the “EC50 (read off the curve)” value is roughly 20 nM.

B6: GT01 R63A (designed binder, not shown: small tags and cut ends)
chain: B5 chain with R67A
With B6, the binding result in the test with trypsin was “no binding (tested: 200 nM)”. Further, the affinity in test [6], expressed as Kd, was 78.7 nM.

B7: anti-GTD gastrobody GT44 (designed binder, not shown: small tags and cut ends)
chain: B5 chain with S128N, D129P, D130S, E131N, F132G
For the molecule B7, in test [7], the Kd worked out at 17.4 nM, the koff is 0.022 s⁻¹ and the kon worked out at 1.3e+06 M⁻¹ s⁻¹.

B8: anti-GTD gastrobody GT47 (designed binder, not shown: small tags and cut ends)
chain: DFVLDNEGNPLENGGTYYILSDYGRQLFGGIRAAPTGNERCPLTVVQSLFRNHRDKGIGTIISSPYRIRFIAEGHPLSLKFDSFAVIMLCVGIPTEWSVVEDLPEGPAVKIGENKDAMDGWFRLERVRPTSSTGNNYKLVFCPQQAEDDKCGDIGISIDHDDGTRRLVVSKNKPLVVQFQKLDKESL
In the case of B8, in test [7], binding was characterised by a dissociation constant (Kd) of 10.3 nM, the koff was 0.022 s⁻¹ and the kon was 2.1e+06 M⁻¹ s⁻¹. The “fold improvement of affinity against GT01” value in test [8] is roughly 8 fold.
